This passage reports normalised SPOT signal, Boehringer light units (BLU); mean over the file's lines of this peptide results from publication PMC314469, “Protein Interaction Networks by Proteome Peptide Scanning” (PLoS Biology, 2004).

T1: Myo5 SH3 (MYO5_YEAST), Q04439
T1 chain: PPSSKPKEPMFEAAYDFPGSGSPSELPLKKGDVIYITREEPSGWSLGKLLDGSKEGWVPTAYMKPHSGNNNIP

For the assay, the target named is T1, Myo5 SH3 (MYO5_YEAST), Q04439. Description: SPOT array.
Take AFHFWRPPIAPAEM [YDR230W 49-62]: the normalised SPOT signal, Boehringer light units (BLU); mean over the file's lines of this peptide was 1960.
As for YPAKLRIPETPVKK [YJL187C 187-200], the figure is 220; as for AELFLRRPIFPGRD [YBL016W 214-227], 216.
Molecule AANAHISPPVPGPA [YHL002W 373-386] gave a normalised SPOT signal, Boehringer light units (BLU); mean over the file's lines of this peptide of 28.6.
To APAPPPPPQMPAT [YOR181W 519-531] belongs 7750; to YPEKFQKPYNPLAM [YJR059W 450-463], 157; to AEFDLTDPEVPSFY [YDR362C 446-459], 166.
To APQPHLLPWLPPTD [YDL019C 1187-1200] belongs 117; to AADSHAIPVDPPSY [YKR021W 673-686], 37.9.
To ALGIFFAPESPWWL [YDL247W 284-297] belongs 229; to AAMMLGNPMAPAVQ [YER109C 209-222], 257; to APKKWKAPKGPKPT [YGL099W 6-19], 1010.
In turn, ALNNWILPSTPHIQ [YHR197W 533-546] registered a normalised SPOT signal, Boehringer light units (BLU); mean over the file's lines of this peptide of 169.
To ALDYLIPPPMPKNQ [YOL135C 61-74] belongs 131.
AEVYYGPPTDPRKQ [YDR001C 32-45] came in with a normalised SPOT signal, Boehringer light units (BLU); mean over the file's lines of this peptide of 83.5.
ALRKFGYPFSPNDP [YPR097W 38-51] came in with a normalised SPOT signal, Boehringer light units (BLU); mean over the file's lines of this peptide of 166.
To AARILANPDHPFSR [YPR122W 171-184] belongs 166.
For the molecule AAMNLETPSNPDSA [YPL217C 1040-1053], the normalised SPOT signal, Boehringer light units (BLU); mean over the file's lines of this peptide worked out at 84.9.
To DARPFLKPVDPIAL [YDL070W 154-167] belongs 126; to AFHELGIPVIPNPS [YDR232W 404-417], 193; to ALKSLSNPSSPWQQ [YDR283C 993-1006], 30.3.
As for AAVRLDQPILPQND [YBR018C 82-95], the figure is 105; as for ALYHLSNPNVPKLW [YBR112C 140-153], 196.
The molecule APLLYSSPSEPMAY [YMR055C 139-152] gave a normalised SPOT signal, Boehringer light units (BLU); mean over the file's lines of this peptide of 83.1.
To APPALSAPSVPPVP [YJL020C 718-731] belongs 6580; to ALDNFTLPGTPGFP [YLR370C 101-114], 181; to YWKLFFQPEYPVRM [YLR128W 190-203], 144.
To AELFLGIPIFPGAS [YJL141C 561-574] belongs 36.7; to AELLLGQPMFPGES [YMR139W 231-244], 172; to AAYDHAEPVQPEDA [YGL009C 504-517], 146.
AADWYEVPKVPLSA [YLR223C 813-826] yielded a normalised SPOT signal, Boehringer light units (BLU); mean over the file's lines of this peptide of 275.
To YLTEFSRPIPPTPS [YPL009C 61-74] belongs 169; to AEAYLVTPEEPAKN [YDL129W 9-22], 39.6; to AELMLRIPYLPGQN [YDL108W 196-209], 236.
APKYYVPPGIPTND [YJL020C 199-212] yielded a normalised SPOT signal, Boehringer light units (BLU); mean over the file's lines of this peptide of 10400.
To ALGFYRAPGSPAPA [YMR069W 242-255] belongs 101; to AAPKHAPPPVPNET [YDL019C 770-783], 111000.
To APPALSAPSIPPVP [YJL020C 739-752] belongs 10800; to ALKEMTHPIKPSAQ [YLR239C 27-40], 261.
